Experimental data taken from US20050226874A1 (CENTRE NATIONAL DE LA RECHERCHE SCIENTIFIQUE CNRS A …, published 2005).
Residue numbers refer to the chain shown, from its start.

Tests used:
[1] = target: T1, biotinylated human recombinant CD4 (Repligen Inc.) (human, UniProt P01730 26-394, limits assumed, biotinylated (sites not given)); assay: Spot peptide on cellulose probed with biotinylated CD4
T1 construct: Probe of the Spot membranes, used at 1 µg/ml; also called biotinylated CD4; CD4 probe
Description: (§1) The antigenic reactivity of the peptides bound to the cellulose membrane was tested with biotinylated CD4 (1 μg/ml) under conditions that led to the production of a blue precipitate for the reactive spots as described in [Bès, 2001b].

[2] = target: T1, biotinylated human recombinant CD4 …; assay: Spot peptides on cellulose membrane probed with biotinylated CD4
Description: as §1

[3] = target: T2, membranous CD4 (wild human CD4 expressed on cells) (human, UniProt P01730 26-458); assay: flow cytometry, T A2.01/CD4 cells, Fab at 1 µg/ml, fluorescein-labeled anti-kappa chain antibody
T2 construct: whole, on cells; also called T A2.01/CD4 cells; T AN2.01/CD4 cells
Description: The binding of the wild or mutant Fabs to the membranous CD4 was evaluated by flow cytometry.
In order to determine the binding of the fragments to the membranous CD4, T AN2.01 CD4+ cells were analyzed by indirect immunofluorescent labeling and flow cytometry (FIG. 4).

[4] = target: T3, soluble human recombinant CD4 expressed in baculovirus (human, UniProt P01730 26-396, limits assumed); assay: SPR (BIAcore), CD4 immobilised, Exp. 2; Exp. 2
T3 construct: Coated on plates for the ELISA and covalently immobilised on the sensor for BIAcore; Only called soluble; also called soluble CD4; CD4 expressed in the baculovirus
Description: (§2) The kinetic parameters of the binding of CD4 to the paratope of the Fab fragments of the 13B8.2 antibody were determined by analysis of the surface plasmon resonance by means of a BIAcore analyzer (BIAcore AB, Uppsala, Sweden).

[5] = target: T3, soluble human recombinant CD4 expressed …; assay: SPR (BIAcore), CD4 immobilised, Exp. 1
Description: as §2

[6] = target: T3, soluble human recombinant CD4 expressed …; assay: ELISA on coated baculovirus-expressed soluble CD4, anti-human kappa-peroxidase, A490 [panel Mutants CDR-H 13B8.2]
Description: A 1:500 dilution of the CD4 fraction expressed by the baculovirus in 0.1 M carbonate/bicarbonate buffer, pH 9.6, was incubated overnight at 4° C. on 96-well enzymatic immunoanalysis plates (Nunc, Paisley, UK). Four washings with the phosphate saline buffer (PBS) 160 mM pH 7.2, containing 0.1% Tween 20 (PBD-T), were performed before and after the saturation of the microplates, with powdered skim milk at a concentration of 1% in the PBS-T for one hour at 37° C.

B1: alanine analogue of peptide 49GVIWRS54 with Arg53 replaced by Ala (peptide)
peptide: GVIWAS
notes: Spot peptide on cellulose membrane; also called GVIWAS
[1]
  binding result: no binding

B2: alanine analogue of peptide 49GVIWRS54 with Ser54 replaced by Ala (peptide)
peptide: GVIWRA
notes: Spot peptide on cellulose membrane; also called GVIWRA
[1]
  binding result: binds

B3: alanine analogue of peptide 49GVIWRS54 with Val50 replaced by Ala (peptide)
peptide: GAIWRS
notes: Spot peptide on cellulose membrane; also called GAIWRS
[2]
  binding result: binds

## WASGIT (also called WASGIT) [alanine analogue of peptide 52WRSGIT57 with Arg53 replaced by Ala (dotted bar R53)]
[2]
  binding result: no binding

B4: mutant Fab Y36-L of the 13B8.2 antibody (Fab, V domains shown)
VH: QVQLKQSGPGLVQPSQSLSITCTVSGFSLTTFGVHWVRQSPGKGLEWLGVIWRSGITDYNVPFMSRLSITKDNSKSQVFFKLNSLQPDDTAIYYCAKNDPGTGFAYWGQGTLVTVSA
VL: DIQMTQSPASLSASVGETVTFTCRASENIYSYLAWAQQKQGKSPQLLVHDAKTLAEGVPSRFSGGGSGTQFSLKINTLQPEDFGTYYCQHHYGNPPTFGGGTKLEIK
notes: Chimeric Fab with human CH1-γ1 and Cκ; baculovirus/Sf9
[3]
  percent of cells under the marker bar of the histogram: 44.6%
[4]
  Kd: 11.4 nM
  koff: 0.00057 s⁻¹
  kon: 50000 M⁻¹ s⁻¹
[5]
  Kd: 25.4 nM
  koff: 0.000651 s⁻¹
  kon: 25600 M⁻¹ s⁻¹

B5: mutant Fab Y102-H of the 13B8.2 antibody (Fab, V domains shown)
VH: B4 VH with Y106A
VL: B4 VL with A36Y
notes: as for B4
[6]
  binding result: binds
